Experimental data from paper PMC3865217.

What was measured:
Assay in all cases: SPR
Conditions in all cases: EMSA: 5 mM Hepes pH 7.5, 0.05 mM EDTA, 0.014% Nonidet P40, 5% glycerol, 30 min, 23 C; SPR: 5 mM Hepes pH 7.5, 5 mM phosphate pH 7.5, 0.05 mM EDTA …
[1] = tested on: Yap8bZIPLNNR (Saccharomyces cerevisiae)
[2] = tested on: Yap8bZIP (Saccharomyces cerevisiae)
[3] = tested on: Yap8bZIPL26A (Saccharomyces cerevisiae)

Y8RE 25-bp SPR oligomer
Kd [1]: 6.5 nM | Kd [2]: 6.1 nM | Kd [3]: 17.2 nM
